According to article PMC10453637:

Test system: O=C1CCCCC1
Experiment: purified protein
Settings: apparent, 0.3 mM NADPH, 50 mM sodium phosphate pH 7.7, 25 °C

Q: How did the Km turn out when “Ac CHMO (cyclohexanone monooxygenase) (Acinetobacter johnsonii)” was run?
A: 4.09 ± 1.81 µM
